Values quoted from earlier work as cited in article PMC3713533.
pKd: −log10 of the molar value.

Target: VWF73 VWF73 (Homo sapiens) (UniProt P04275)
Sequence of UniProt P04275 (P04275 1596-1668): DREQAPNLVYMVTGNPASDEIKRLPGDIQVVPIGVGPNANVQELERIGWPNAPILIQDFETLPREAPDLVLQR

Substance: ADAMTS13 TSP1 repeat 1 (from UniProt Q76LX8)
- pKd: 6.87
